Assay results published in the supplement of paper PMC10899765.

test system: MCF10A; assay: 5+ nucleoli phenotype percent effect (relative to siNT 0% and siKIF11 100%); higher = more cells with five or more nucleoli; conditions: 20 nM; 72 h
Method: (§1)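 After 72 h, cells were fixed and stained with Hoechst and anti-fibrillarin, and nucleoli per nucleus were counted with CellProfiler. Values are plate-adjusted percent effect for the one-nucleolus and 5+ nucleoli phenotypes, normalised to siNT (0%) and to the positive controls siNOL11 or siKIF11 (100%), as the mean of biological triplicates. Percent viability is the nuclei count relative to siNT.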

| Sequence | 5+ nucleoli phenotype percent effect [%] |
| --- | --- |
| AAUAAUAUCACAGUAGGUGUAC [hsa-miR-5692c] | 46 |
| UGAGCACCACACAGGCCGGGCGC [hsa-miR-3663-3p] | 12.4 |
| CAUCUUACCGGACAGUGCUGGA [hsa-miR-200a-5p] | -26 |
| UGCGGCAGAGCUGGGGUCA [hsa-miR-6820-5p] | 3.87 |
| CAGUGCAAUGUUAAAAGGGCAU [hsa-miR-130a-3p] | 49.2 |
| CCGCUCUUCCCCUGACCCCAG [hsa-miR-6812-3p] | 54.6 |
| AGGGGGAUGGCAGAGCAAAAUU [hsa-miR-5010-5p] | -7.77 |
| GCUGGGAUUACAGGCAUGAGCC [hsa-miR-619-5p] | 19 |
| GGGUGGGGAUUUGUUGCAUUAC [hsa-miR-92a-2-5p] | -28.2 |
| ACACACUUACCCGUAGAGAUUCUA [hsa-miR-216b-3p] | 35.7 |
| UAUGUAACAUGGUCCACUAACU [hsa-miR-379-3p] | 38.4 |
| CUUGCCAUCCUGGUCCACUGCAU [hsa-miR-4776-3p] | -38.5 |
| CUGGCCUCUUCUUUCUCCUAG [hsa-miR-6878-3p] | 96 |
| CUACAGGCUGGAAUGGGCUCA [hsa-miR-7151-3p] | 2.37 |
| AGCAGGUGCGGGGCGGCG [hsa-miR-3665] | -20.8 |
| AUUCUUCCUGCCCUGGCUCCAU [hsa-miR-6875-3p] | -0.842 |
| UUAGCCAAUUGUCCAUCUUUAG [hsa-miR-4662a-5p] | 1.03 |
| GCUGAUGAUGAUGGUGCUGAAG [hsa-miR-4502] | 38.7 |
| GAAUGUUGCUCGGUGAACCCCU [hsa-miR-409-3p] | -31.1 |
| UCCCCUUCUGCAGGCCUGCUGG [hsa-miR-3127-3p] | 34.9 |
| AGGCGAUGUGGGGAUGUAGAGA [hsa-miR-6717-5p] | -15.8 |
| GAUUUCAGUGGAGUGAAGUUC [hsa-miR-205-3p] | 51.7 |
| UGCAACGAACCUGAGCCACUGA [hsa-miR-891a] | 1.67 |
| UCUGUGGAGUGGGGUGCCUGU [hsa-miR-7114-5p] | 7.56 |
| GAUUGAGACUAGUAGGGCUAGGC [hsa-miR-4461] | -3.16 |
| UAGGGGCAGCAGAGGACCUGGG [hsa-miR-4688] | 8.84 |
| GGGAUUCUGUAGCUUCCU [hsa-miR-4320] | -18.6 |
| UUCCUGGGCUUCUCCUCUGUAG [hsa-miR-6783-3p] | 7.93 |
| AAUGUUUUUUCCUGUUUCC [hsa-miR-4307] | 3.12 |
| GUGUUGAAACAAUCUCUACUG [hsa-miR-653] | 38.1 |

test system: MCF10A; assay: one-nucleolus phenotype percent effect (relative to siNT 0% and siNOL11 100%); higher = more cells with one nucleolus (ribosome biogenesis inhibition); conditions: 20 nM; 72 h
Method: as §1

| Sequence | one-nucleolus phenotype percent effect [%] |
| --- | --- |
| CUGAAGUGAUGUGUAACUGAUCAG [hsa-miR-573] | -6.66 |
| UAGAGUCUGGCUGAUAUGGUUU [hsa-miR-5007-5p] | 14 |
| AAAAGUAAUUGCGGUUUUUGC [hsa-miR-548au-5p] | -19.4 |
| UAUGUAACACGGUCCACUAACC [hsa-miR-411-3p] | -6.25 |
| UACCAUUAGAAGAGCUGGAAGA [hsa-miR-6512-5p] | 1.01 |
| UGGGGAGCGGCCCCCGGGUGGG [hsa-miR-1343-5p] | -31.1 |
| UUUGGCACUAGCACAUUUUUGCU [hsa-miR-96-5p] | 19.4 |
| ACCAGGCAAGAAAUAUUGU [hsa-miR-4645-5p] | -4.87 |
| CCUGAGACCCUAGUUCCAC [hsa-miR-4329] | -7.16 |
| UGUGGGUUCUGGGUUGGGGUGA [hsa-miR-6793-5p] | 30.2 |
| AGGGGGUAGAAAGUGGCUGAAG [hsa-miR-6835-5p] | 11.4 |
| UGGUGGGUGGGGAGGAGAAGUGC [hsa-miR-6769b-5p] | 23.2 |
| AUCCCCAGAUACAAUGGACAA [hsa-miR-2355-5p] | 1.32 |
| UCAAAAUCAGGAGUCGGGGCUU [hsa-miR-8063] | -23.1 |
| AAGUGAUCUAAAGGCCUACAU [hsa-miR-1245a] | 10.4 |
| GCCCGAGAGGAUCCGUCCCUGC [hsa-miR-4740-3p] | -18.2 |
| GCUGGUGACAUGAGAGGC [hsa-miR-4299] | -5.58 |
| CAUAAAGUAGAAAGCACUACU [hsa-miR-142-5p] | -15.5 |
| UGAGUGGGGCUCCCGGGACGGCG [hsa-miR-4745-5p] | -8.18 |
| CACUGUAGGUGAUGGUGAGAGUGGGCA [hsa-miR-1183] | 0.199 |

| Sequence | one-nucleolus phenotype percent effect [%] |
| --- | --- |
| GACAAUUGUUGAUCUUGGGCCU [hsa-miR-7849-3p] | 8.55 |
| UUUAGAUUGAACAUGAAGUUAG [hsa-miR-4760-5p] | -20.8 |
| CCUCCGUGUUACCUGUCCUCUAG [hsa-miR-3605-3p] | 0.086 |
| CUUGAGUCGUGCCUUUCUGAAUG [hsa-miR-8081] | 14 |
| UCUGAGAGAGCUCGAUGGCAG [hsa-miR-6761-5p] | -17.3 |
| AAUCCACGCUGAGCUUGGCAUC [hsa-miR-5092] | 14.7 |
| CUACAAAGGGAAGCACUUUCUC [hsa-miR-524-5p] | 17.4 |
| CAAUGUGAUCUUUUGGAUGUA [hsa-miR-8066] | 56.9 |
| AUCCUUGCUAUCUGGGUGCUA [hsa-miR-502-5p] | 8.98 |
| AAUAAUAUCACAGUAGGUGUAC [hsa-miR-5692c] | -21.3 |
| UGAGCACCACACAGGCCGGGCGC [hsa-miR-3663-3p] | -6.6 |
| CAUCUUACCGGACAGUGCUGGA [hsa-miR-200a-5p] | 5.98 |
| UGCGGCAGAGCUGGGGUCA [hsa-miR-6820-5p] | 11.9 |
| CAGUGCAAUGUUAAAAGGGCAU [hsa-miR-130a-3p] | -19.9 |
| CCGCUCUUCCCCUGACCCCAG [hsa-miR-6812-3p] | -35.5 |
| AGGGGGAUGGCAGAGCAAAAUU [hsa-miR-5010-5p] | 13.7 |
| GCUGGGAUUACAGGCAUGAGCC [hsa-miR-619-5p] | -9.05 |
| GGGUGGGGAUUUGUUGCAUUAC [hsa-miR-92a-2-5p] | 28.3 |
| ACACACUUACCCGUAGAGAUUCUA [hsa-miR-216b-3p] | -17.3 |
| UAUGUAACAUGGUCCACUAACU [hsa-miR-379-3p] | -12 |

| Sequence | one-nucleolus phenotype percent effect [%] |
| --- | --- |
| CUUGCCAUCCUGGUCCACUGCAU [hsa-miR-4776-3p] | 25.4 |
| CUGGCCUCUUCUUUCUCCUAG [hsa-miR-6878-3p] | -7.63 |
| CUACAGGCUGGAAUGGGCUCA [hsa-miR-7151-3p] | 13.6 |
| AGCAGGUGCGGGGCGGCG [hsa-miR-3665] | 40.6 |
| AUUCUUCCUGCCCUGGCUCCAU [hsa-miR-6875-3p] | -4.69 |
| UUAGCCAAUUGUCCAUCUUUAG [hsa-miR-4662a-5p] | 9.07 |
| GCUGAUGAUGAUGGUGCUGAAG [hsa-miR-4502] | -19.2 |
| GAAUGUUGCUCGGUGAACCCCU [hsa-miR-409-3p] | 9.98 |
| UCCCCUUCUGCAGGCCUGCUGG [hsa-miR-3127-3p] | -24.5 |
| AGGCGAUGUGGGGAUGUAGAGA [hsa-miR-6717-5p] | 19.4 |
| GAUUUCAGUGGAGUGAAGUUC [hsa-miR-205-3p] | -30.2 |
| UGCAACGAACCUGAGCCACUGA [hsa-miR-891a] | -1.85 |
| UCUGUGGAGUGGGGUGCCUGU [hsa-miR-7114-5p] | 15 |
| GAUUGAGACUAGUAGGGCUAGGC [hsa-miR-4461] | 3.4 |
| UAGGGGCAGCAGAGGACCUGGG [hsa-miR-4688] | 23.4 |
| GGGAUUCUGUAGCUUCCU [hsa-miR-4320] | 50 |
| UUCCUGGGCUUCUCCUCUGUAG [hsa-miR-6783-3p] | -1.45 |
| AAUGUUUUUUCCUGUUUCC [hsa-miR-4307] | -12.3 |
| GUGUUGAAACAAUCUCUACUG [hsa-miR-653] | -22.2 |
